Experimental data from patent publication US20180155451A1 (published 2018).

T1: FcγRIIb (human, UniProt P31994 43-217)
T1 construct: extracellular domain; also called FcgRIIb; 2b
T1 sequence (looked up): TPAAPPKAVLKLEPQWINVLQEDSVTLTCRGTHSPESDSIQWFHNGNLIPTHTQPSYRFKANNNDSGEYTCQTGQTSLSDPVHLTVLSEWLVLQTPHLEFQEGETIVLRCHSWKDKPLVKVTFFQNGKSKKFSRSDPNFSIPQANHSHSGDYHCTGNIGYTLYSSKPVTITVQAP


Legend:
FcγRIIb = molecular target: T1, FcγRIIb; assay: SPR, captured antibody; relative to GpH7-A5/GpH7-B3/GpL16-k0
FcγRIa = molecular target: T2, FcγRIa (human, UniProt P12314 16-292); assay: as above
T2 construct: extracellular domain; also called FcgRI; 1a
T2 sequence (P12314 16-292): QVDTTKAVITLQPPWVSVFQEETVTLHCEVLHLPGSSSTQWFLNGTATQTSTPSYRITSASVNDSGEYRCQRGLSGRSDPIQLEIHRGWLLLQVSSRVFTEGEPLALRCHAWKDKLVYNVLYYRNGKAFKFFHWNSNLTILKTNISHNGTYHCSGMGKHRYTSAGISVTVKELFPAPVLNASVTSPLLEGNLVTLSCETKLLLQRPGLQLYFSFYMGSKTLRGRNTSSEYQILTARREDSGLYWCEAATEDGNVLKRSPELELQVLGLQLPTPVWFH

| He/Con_2b (FcγRIIb) | He/Con_1a (FcγRIa) | Binder |
| --- | --- | --- |
| 26.8 relative, HeCon Ab = 100 | 79.6 relative, HeCon Ab = 100 | GpH7-A5/GpH7-B3 variant (G236_08L)/GpL16-k0 (antibody, human IgG1, kappa, IgG1 heterodimer, mutation in the GpH7-B3 chain only; also called He Ab) heavy 1: not shown heavy 2: not shown light: DIVMTQSPLSLPVTPGEPASISCQASESLVHSNRNTYLHWYLQKPGQSPQLLIYKVSNRFSGVPDRFSGSGSGTDFTLKISRVEAEDVGVYYCSQNTHVPPTFGQGTKVEIERTVAAPSVFIFPPSDEQLKSGTASVVCLLNNFYPREAKVQWKVDNALQSGNSQESVTEQDSKDSTYSLSSTLTLSKADYEKHKVYACEVTHQGLSSPVTKSFNRGEC |
| 49.8 relative, HeCon Ab = 100 | 71 relative, HeCon Ab = 100 | GpH7-A5/GpH7-B3 variant (G236_11K)/GpL16-k0 (antibody, human IgG1, kappa, IgG1 heterodimer, mutation in the GpH7-B3 chain only; also called He Ab) heavy 1: not shown heavy 2: not shown light: DIVMTQSPLSLPVTPGEPASISCQASESLVHSNRNTYLHWYLQKPGQSPQLLIYKVSNRFSGVPDRFSGSGSGTDFTLKISRVEAEDVGVYYCSQNTHVPPTFGQGTKVEIERTVAAPSVFIFPPSDEQLKSGTASVVCLLNNFYPREAKVQWKVDNALQSGNSQESVTEQDSKDSTYSLSSTLTLSKADYEKHKVYACEVTHQGLSSPVTKSFNRGEC |
| 6.8 relative, HeCon Ab = 100 | 63.1 relative, HeCon Ab = 100 | GpH7-A5/GpH7-B3 variant (G236_12R)/GpL16-k0 (antibody, human IgG1, kappa, IgG1 heterodimer, mutation in the GpH7-B3 chain only; also called He Ab) heavy 1: not shown heavy 2: not shown light: DIVMTQSPLSLPVTPGEPASISCQASESLVHSNRNTYLHWYLQKPGQSPQLLIYKVSNRFSGVPDRFSGSGSGTDFTLKISRVEAEDVGVYYCSQNTHVPPTFGQGTKVEIERTVAAPSVFIFPPSDEQLKSGTASVVCLLNNFYPREAKVQWKVDNALQSGNSQESVTEQDSKDSTYSLSSTLTLSKADYEKHKVYACEVTHQGLSSPVTKSFNRGEC |
| 57.8 relative, HeCon Ab = 100 | 92.2 relative, HeCon Ab = 100 | GpH7-A5/GpH7-B3 variant (G236_14T)/GpL16-k0 (antibody, human IgG1, kappa, IgG1 heterodimer, mutation in the GpH7-B3 chain only; also called He Ab) heavy 1: not shown heavy 2: not shown light: DIVMTQSPLSLPVTPGEPASISCQASESLVHSNRNTYLHWYLQKPGQSPQLLIYKVSNRFSGVPDRFSGSGSGTDFTLKISRVEAEDVGVYYCSQNTHVPPTFGQGTKVEIERTVAAPSVFIFPPSDEQLKSGTASVVCLLNNFYPREAKVQWKVDNALQSGNSQESVTEQDSKDSTYSLSSTLTLSKADYEKHKVYACEVTHQGLSSPVTKSFNRGEC |
| 39.5 relative, HeCon Ab = 100 | 92.5 relative, HeCon Ab = 100 | GpH7-A5/GpH7-B3 variant (G236_15Y)/GpL16-k0 (antibody, human IgG1, kappa, IgG1 heterodimer, mutation in the GpH7-B3 chain only; also called He Ab) heavy 1: not shown heavy 2: not shown light: DIVMTQSPLSLPVTPGEPASISCQASESLVHSNRNTYLHWYLQKPGQSPQLLIYKVSNRFSGVPDRFSGSGSGTDFTLKISRVEAEDVGVYYCSQNTHVPPTFGQGTKVEIERTVAAPSVFIFPPSDEQLKSGTASVVCLLNNFYPREAKVQWKVDNALQSGNSQESVTEQDSKDSTYSLSSTLTLSKADYEKHKVYACEVTHQGLSSPVTKSFNRGEC |
| 27.9 relative, HeCon Ab = 100 | 83.5 relative, HeCon Ab = 100 | GpH7-A5/GpH7-B3 variant (G236_16H)/GpL16-k0 (antibody, human IgG1, kappa, IgG1 heterodimer, mutation in the GpH7-B3 chain only; also called He Ab) heavy 1: not shown heavy 2: not shown light: DIVMTQSPLSLPVTPGEPASISCQASESLVHSNRNTYLHWYLQKPGQSPQLLIYKVSNRFSGVPDRFSGSGSGTDFTLKISRVEAEDVGVYYCSQNTHVPPTFGQGTKVEIERTVAAPSVFIFPPSDEQLKSGTASVVCLLNNFYPREAKVQWKVDNALQSGNSQESVTEQDSKDSTYSLSSTLTLSKADYEKHKVYACEVTHQGLSSPVTKSFNRGEC |
| 46.6 relative, HeCon Ab = 100 | 92.1 relative, HeCon Ab = 100 | GpH7-A5/GpH7-B3 variant (G236_19Q)/GpL16-k0 (antibody, human IgG1, kappa, IgG1 heterodimer, mutation in the GpH7-B3 chain only; also called He Ab) heavy 1: not shown heavy 2: not shown light: DIVMTQSPLSLPVTPGEPASISCQASESLVHSNRNTYLHWYLQKPGQSPQLLIYKVSNRFSGVPDRFSGSGSGTDFTLKISRVEAEDVGVYYCSQNTHVPPTFGQGTKVEIERTVAAPSVFIFPPSDEQLKSGTASVVCLLNNFYPREAKVQWKVDNALQSGNSQESVTEQDSKDSTYSLSSTLTLSKADYEKHKVYACEVTHQGLSSPVTKSFNRGEC |
| 58.2 relative, HeCon Ab = 100 | 105 relative, HeCon Ab = 100 | GpH7-A5/GpH7-B3 variant (G236_20W)/GpL16-k0 (antibody, human IgG1, kappa, IgG1 heterodimer, G236W in the GpH7-B3 chain only; also called GpH7-A5/GpH7-B3-03-20W/GpL16-k0; He Ab) heavy 1: not shown heavy 2: not shown light: DIVMTQSPLSLPVTPGEPASISCQASESLVHSNRNTYLHWYLQKPGQSPQLLIYKVSNRFSGVPDRFSGSGSGTDFTLKISRVEAEDVGVYYCSQNTHVPPTFGQGTKVEIERTVAAPSVFIFPPSDEQLKSGTASVVCLLNNFYPREAKVQWKVDNALQSGNSQESVTEQDSKDSTYSLSSTLTLSKADYEKHKVYACEVTHQGLSSPVTKSFNRGEC |
| 61.4 relative, HeCon Ab = 100 | 78.5 relative, HeCon Ab = 100 | GpH7-A5/GpH7-B3 variant (G237_03V)/GpL16-k0 (antibody, human IgG1, kappa, IgG1 heterodimer, mutation in the GpH7-B3 chain only; also called He Ab) heavy 1: not shown heavy 2: not shown light: DIVMTQSPLSLPVTPGEPASISCQASESLVHSNRNTYLHWYLQKPGQSPQLLIYKVSNRFSGVPDRFSGSGSGTDFTLKISRVEAEDVGVYYCSQNTHVPPTFGQGTKVEIERTVAAPSVFIFPPSDEQLKSGTASVVCLLNNFYPREAKVQWKVDNALQSGNSQESVTEQDSKDSTYSLSSTLTLSKADYEKHKVYACEVTHQGLSSPVTKSFNRGEC |
| 24.6 relative, HeCon Ab = 100 | 44.5 relative, HeCon Ab = 100 | GpH7-A5/GpH7-B3 variant (G237_05P)/GpL16-k0 (antibody, human IgG1, kappa, IgG1 heterodimer, mutation in the GpH7-B3 chain only; also called He Ab) heavy 1: not shown heavy 2: not shown light: DIVMTQSPLSLPVTPGEPASISCQASESLVHSNRNTYLHWYLQKPGQSPQLLIYKVSNRFSGVPDRFSGSGSGTDFTLKISRVEAEDVGVYYCSQNTHVPPTFGQGTKVEIERTVAAPSVFIFPPSDEQLKSGTASVVCLLNNFYPREAKVQWKVDNALQSGNSQESVTEQDSKDSTYSLSSTLTLSKADYEKHKVYACEVTHQGLSSPVTKSFNRGEC |
